# From article PMC4011586
# Target: human platelet-derived growth factor alpha receptor (human (endogenous in U373)) (UniProt P16234)
# Chain of UniProt P16234 (P16234 24-1089): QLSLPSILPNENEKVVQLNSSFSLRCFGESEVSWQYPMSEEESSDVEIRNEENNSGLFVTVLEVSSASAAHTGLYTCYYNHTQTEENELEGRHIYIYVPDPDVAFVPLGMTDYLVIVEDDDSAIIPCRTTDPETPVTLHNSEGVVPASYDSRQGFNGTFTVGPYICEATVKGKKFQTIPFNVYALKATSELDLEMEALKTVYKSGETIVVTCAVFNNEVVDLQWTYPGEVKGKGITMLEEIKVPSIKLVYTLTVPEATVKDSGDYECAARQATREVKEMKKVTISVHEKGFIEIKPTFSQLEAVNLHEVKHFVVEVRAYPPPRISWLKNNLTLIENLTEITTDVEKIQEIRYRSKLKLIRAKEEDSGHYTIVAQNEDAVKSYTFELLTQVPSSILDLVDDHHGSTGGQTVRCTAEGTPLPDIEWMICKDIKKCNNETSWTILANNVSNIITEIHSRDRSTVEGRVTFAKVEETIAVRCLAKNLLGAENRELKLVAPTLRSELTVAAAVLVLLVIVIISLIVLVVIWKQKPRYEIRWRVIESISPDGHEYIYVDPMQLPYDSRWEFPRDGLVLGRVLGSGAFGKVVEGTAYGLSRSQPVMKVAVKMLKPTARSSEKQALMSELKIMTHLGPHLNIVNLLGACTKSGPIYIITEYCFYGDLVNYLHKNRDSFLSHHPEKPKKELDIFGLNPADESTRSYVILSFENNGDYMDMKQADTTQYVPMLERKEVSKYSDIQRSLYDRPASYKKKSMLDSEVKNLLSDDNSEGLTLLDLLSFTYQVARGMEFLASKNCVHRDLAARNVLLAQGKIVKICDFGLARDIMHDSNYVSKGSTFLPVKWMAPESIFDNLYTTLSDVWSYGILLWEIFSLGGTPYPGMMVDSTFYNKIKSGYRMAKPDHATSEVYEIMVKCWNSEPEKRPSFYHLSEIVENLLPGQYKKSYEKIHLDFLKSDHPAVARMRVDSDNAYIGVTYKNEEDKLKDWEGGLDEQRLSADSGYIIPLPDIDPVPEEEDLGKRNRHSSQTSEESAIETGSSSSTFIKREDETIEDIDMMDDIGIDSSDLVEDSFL
substance,measurement,value
recombinant HCMV glycoprotein B (from UniProt P13201 23-907) (ligand),"phosphorylation of PDGFRα in U373 cells stimulated with recombinant gB, cell based ELISA, relative to PDGF-AA (100%)",50%
